# Source: US20160075744, “DNA-BINDING PROTEIN USING PPR MOTIF, AND USE THEREOF” (KYUSHU UNIVERSITY, NATATIONAL UNIVERSITY CORPORATION, published 2016)
# T1: GUN1-VP64 (Arabidopsis thaliana, UniProt Q9SIC9 SEQ:234-620)
# T1 chain: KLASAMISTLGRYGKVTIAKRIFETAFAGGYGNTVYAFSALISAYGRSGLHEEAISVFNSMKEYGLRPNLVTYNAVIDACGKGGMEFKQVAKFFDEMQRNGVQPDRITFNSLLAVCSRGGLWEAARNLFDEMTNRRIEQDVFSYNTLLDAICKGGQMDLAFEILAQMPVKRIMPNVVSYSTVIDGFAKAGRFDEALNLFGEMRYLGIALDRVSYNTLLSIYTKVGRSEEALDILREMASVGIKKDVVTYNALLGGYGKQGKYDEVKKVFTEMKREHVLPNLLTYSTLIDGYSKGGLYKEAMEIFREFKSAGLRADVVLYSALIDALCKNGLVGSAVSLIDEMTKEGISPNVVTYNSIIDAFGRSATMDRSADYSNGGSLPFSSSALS
# T2: pTac2-VP64 (Arabidopsis thaliana, UniProt Q9S7Q2 SEQ:106-632)
# T2 chain: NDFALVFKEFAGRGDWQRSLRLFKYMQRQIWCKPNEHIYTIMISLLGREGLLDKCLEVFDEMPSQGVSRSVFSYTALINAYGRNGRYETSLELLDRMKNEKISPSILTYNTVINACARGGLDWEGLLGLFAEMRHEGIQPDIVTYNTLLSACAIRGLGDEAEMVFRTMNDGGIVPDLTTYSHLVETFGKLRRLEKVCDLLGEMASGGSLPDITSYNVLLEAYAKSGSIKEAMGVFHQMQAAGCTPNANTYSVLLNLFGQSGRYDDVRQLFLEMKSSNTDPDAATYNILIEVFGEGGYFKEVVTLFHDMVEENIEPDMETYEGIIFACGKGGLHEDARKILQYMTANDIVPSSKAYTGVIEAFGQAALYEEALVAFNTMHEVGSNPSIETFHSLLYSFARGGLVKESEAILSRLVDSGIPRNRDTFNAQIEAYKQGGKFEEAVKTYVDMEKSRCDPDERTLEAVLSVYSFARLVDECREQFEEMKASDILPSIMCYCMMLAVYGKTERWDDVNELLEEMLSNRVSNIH
# B1: GUN1 target (8x in reporter) (dsDNA)
# DNA 1: AATTTGTCGAT
# DNA 2: ATCGACAAATT
# B2: GUN1 target (4x in reporter) (dsDNA)
# DNA 1: AATTTGTCGAT
# DNA 2: ATCGACAAATT
# B3: pTac2 target (4x in reporter) (dsDNA)
# DNA 1: AACTTTCGTCACTCA
# DNA 2: TGAGTGACGAAAGTT
# B4: pTac2 target (8x in reporter) (dsDNA)
# DNA 1: AACTTTCGTCACTCA
# DNA 2: TGAGTGACGAAAGTT
# How the values were obtained:
# GUN1-VP64 [1] = biological target: T1, GUN1-VP64; test: cell_activity; HEK293T dual luciferase, 8x target, vs pminCMV-luc2
# Procedure: (§1) The PPR-VP64 expression vector prepared in the section 1, the firefly luciferase expression vector prepared in the section 2, and the pRL-CMV vector (expression vector for Renilla luciferase, Promega) as a reference were introduced by using Lipofectamine LTX (Life Technologies). The DMEM medium (25 μl) was added to each well of a 96-well plate, and a mixture containing the PPR-VP64 expression vector (400 ng), firefly luciferase expression vector (100 ng), and pRL-CMV vector (20 ng) was further added. Then, a mixture of the DMEM medium (25 μl) and Lipofectamine LTX (0.7 μl) was added to each well, the plate was left standing at room temperature for 30 minutes, then 6×10⁴ of the HEK293 T cells suspended in the DMEM medium containing 15% fetal bovine serum (100 μl) were added, and the cells were cultured at 37° C. in a CO₂ incubator for 24 hours.
# (§2) The luciferase activity was compared for the cases of introducing pTac2-VP64 or GUN1-VP64 together with pminCMV-luc2 for a negative control, or the reporter vector having 4 or 8 target sequences (table mentioned below, FIG. 6). The comparison of the activity was performed on the basis of standardized scores obtained by dividing the measured values obtained with Fluc (firefly luciferase) with the measured value obtained with Rluc (Renilla luciferase) as the reference (Fluc/Rluc). […]
# GUN1-VP64 [2] = biological target: T1, GUN1-VP64; test: cell_activity; HEK293T dual luciferase, 4x target, vs pminCMV-luc2
# Procedure: as §1, §2
# pTac2-VP64 [3] = biological target: T2, pTac2-VP64; test: as above
# Procedure: as §1, §2
# pTac2-VP64 [4] = biological target: T2, pTac2-VP64; test: cell_activity; HEK293T dual luciferase, 8x target, vs pminCMV-luc2
# Procedure: as §1, §2
binder,measurement,setting,value
B1,activity,GUN1-VP64 [1],3.15 fold activation
B2,activity,GUN1-VP64 [2],2.88 fold activation
B3,activity,pTac2-VP64 [3],2.91 fold activation
B4,activity,pTac2-VP64 [4],4.81 fold activation
